The values below come from the RNAGym collection of RNA variant scans (doi:10.1093/nar/gkz1192).

Sequences and labels used below:
B1: CPEB3 Ribozyme (parent)
chain: UAACAGGGGGCCACAGCAGAAGCGUUCACGUCGCAGCCCCUGUCAGAUUCUGGUGAAUCUGCGAAUUCUGCUGUAUAUCUC

In this series the parent is B1. Kind of series: self-cleavage, relative activity (ratio to wild type); higher = more cleavage; in vitro, sequencing. The procedure, abridged:
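Relative activity compares each variant's cleaved/total read fraction with that of the unmutated ribozyme. To get these fractions, barcoded CPEB3 ribozyme libraries from rounds of error-prone PCR were transcribed with T7 RNA polymerase for 5 hours at 37°C and then given 15 min of DNase I treatment before EDTA was added. The RNAs were reverse transcribed with template switching and sequenced on Illumina, and DNA sequencing linked barcodes to variants. A minimum of 5 reads applied, and three batches were averaged.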
With UAACAGGGGGCCACAGCAGAAGCGUUCACGUCGCAGGCCCUGUCAGAUUCUGGUGAAUCUGCGAAUUCUGCCGUAUAUCUC [C37G U72C], the self-cleavage was 1.14.

As to UAACAGGGGGCCACAGCUGAAGCGUUCACGUCACAGCCCCUGUCAGAUUCUGGUGAAUCUGCGAAUUCUGCUGUAUAUCUC [A18U G33A], the self-cleavage was determined as 0.3.

Take UAACAGGGGGCAACAGCAGAAGCGUUCACGUCGCAGCCCCUGUCAGAUUCUGGUGAAUCCGCGAAUUCUGCUGUAUAUCUC [C12A U60C]: the self-cleavage is 0.3.

Take UAAUAGGGGGCCACAGCAGAAGCGUUCACGUCGCAGUCCCUGUCAGAUUCUGGUGAAUCUGCGAAUUCUGCUGUAUAUCUC [C4U C37U]: the self-cleavage turned out to be 0.91.

Turning to UAACAGGGGGCCACAGCAGAAGCGUUCACGUCGCAGCCCCUGUCAGAUUCUGGUGAAUUUGCGAAUUCUGCUGAAUAUCUC [C59U U74A], the self-cleavage turned out to be 1.6.

For the variant UAACAGGGGGCCACCGCAGAAGCGUUCACGUCGCAGCCCCUGUCAGAUUCUGGUGAAUCUGCGAAUUCUGCUGUAUACCUC [A15C U78C], the self-cleavage is 0.87.

Turning to UAACAGGGGGCCACAGCAGAAGCGUUCACGUCGCAGCUCCUGUCAGAUUCUGGCGAAUCUGCGAAUUCUGCUGUAUAUCUC [C38U U54C], the self-cleavage turned out to be 0.68.

With CAACAGGGGGCCACAGCAGAAGCGUUCACGUCGCCGCCCCUGUCAGAUUCUGGUGAAUCUGCGAAUUCUGCUGUAUAUCUC [U1C A35C], the self-cleavage was determined as 0.71.

Consider UAACAGGGGGCCACAGCAGAAGCGUUCACGUCGCAGCCCCUGUCAGAUUCUGGUAAAUCUGCGAAUUCUGCUGUAUACCUC [G55A U78C], for which the self-cleavage turned out to be 0.75.

For the variant UAACAGGGGGCCACACCAGAAGCGUUCACGUCGCAGCCCCUGUCAGAUUCUGGUGAAUCUGCGAAUUCUGCUGAAUAUCUC [G16C U74A], the self-cleavage is 0.38.

Turning to UAACAGGGGGCCACAGCAGAAGCCUUCACGUCGCAGCCCCUGUCAGAUUCUGGUGAAUCUGCGAAUUCUGCUGUACAUCUC [G24C U76C], the self-cleavage was 0.2.

As to UAACAGGGGGCCACAGCAGAAGCGUUCACGUCGCAGCCCCUGUCAGAUCCUGGUGAAUCUGCGAAGUCUGCUGUAUAUCUC [U49C U66G], the self-cleavage was determined as 0.29.

With UAACAGGGGGCCACAGCAGAAGCGUUCACGUCGCAGCCCCUGUCAGAUUCUGGUGUAUCUGCGAAUUCUGCUGUAUAUCAC [A56U U80A], the self-cleavage came to 1.

As to UAACAGGGGGCCUCAGCAGAAGCGUUCACGUCGCAGCCCCUGUCAGAUUAUGGUGAAUCUGCGAAUUCUGCUGUAUAUCUC [A13U C50A], the self-cleavage is 0.98.

UAACAGGCGGCCACAGCAGAAGCGUUCACGCCGCAGCCCCUGUCAGAUUCUGGUGAAUCUGCGAAUUCUGCUGUAUAUCUC [G8C U31C]: the self-cleavage turned out to be 0.38.

Regarding UAACAGGGGGCCACAGCAGAAGCAUUCACGUCGCAGCCCCUGUCAGAUUCUGAUGAAUCUGCGAAUUCUGCUGUAUAUCUC [G24A G53A], the self-cleavage was 0.53.

UAACAGGGGGCCACAGCAGAAGCGUUCACGCCGCAGCCCCUUUCAGAUUCUGGUGAAUCUGCGAAUUCUGCUGUAUAUCUC [U31C G42U]: the self-cleavage stood at 0.13.

In the case of UAACAGGGGGCCACAGCAGAAGCGUUCACGUCGCAGCCCCUGUCAGAUUCUGGUGAAUCUGCUAAUUCUGCUGUAAAUCUC [G63U U76A], the self-cleavage came to 1.23.

On to UAACAGGGGGCCACAGCAGAAGCGUUCACGUCGCAGCCCCUGUCAGAUUCUGGUGAAUCUGCAAAUUCUGCGGUAUAUCUC [G63A U72G], for which the self-cleavage stood at 0.84.

With UAACAGGGGGCCACAGCAGAAGCGUUCACGUCGCAGCCCCUGUCAGAUUCUGGUCAAUCUGCGAAUUCUGCAGUAUAUCUC [G55C U72A], the self-cleavage worked out at 0.4.

Take UAACAGGGGGCCACAGCAGAAGCGUUCACGUCGCAGCCCCUGUCAGAUUCUGGUGAAUCCGCGAAUUCUGCUGUGUAUCUC [U60C A75G]: the self-cleavage was 0.37.

Consider UAACAGGGGGCCACAGCAGAAGCGUUCCCGUCGCAGCCCCUGUCAGAUUCUGGUGAAUCUGCGAAUUCUGCUGUAUACCUC [A28C U78C], for which the self-cleavage stood at 0.46.

For the variant UAACAGGGGGCCACAGCAGAAGCGUUCACGUCGCAGCCCCUGUCAGGUUCUGGUGAAUCUGCGAAUUCUGCUGUAUAUCUC [A47G], the self-cleavage was determined as 1.01.

As for UAACAGGGGGCCACAGCAGAAGCGUUCACGCCGCAGCCCCUGUCAGAUUCUGGUGAACCUGCGAAUUCUGCUGUAUAUCUC [U31C U58C], the self-cleavage came out at 0.33.

With UAACAGGGGGCCACAGCAGAAGCGUUCAUGCCGCAGCCCCUGUCAGAUUCUGGUGAAUCUGCGAAUUCUGCUGUAUAUCUC [C29U U31C], the self-cleavage stood at 0.31.

For the variant UAACAGGGGGCCUCAGCAGAACCGUUCACGUCGCAGCCCCUGUCAGAUUCUGGUGAAUCUGCGAAUUCUGCUGUAUAUCUC [A13U G22C], the self-cleavage turned out to be 0.19.

UAACAGGGGUCCACAGCAGAAGCGUUCACGUCGCAGCCCCUGUCAGAUUCCGGUGAAUCUGCGAAUUCUGCUGUAUAUCUC [G10U U51C]: the self-cleavage stood at 0.4.

Regarding UAACAGGGGGCCACAGCAGAAGCGUUCACGUCGCAGCCCCUGUCAGAUUCUGGUGAAUCUGCGAAUUAUGCUUUAUAUCUC [C68A G73U], the self-cleavage came out at 0.85.

In the case of UAACAGGGGGCCACAGCAGAAGCGUUCAUGUCGCAGCCCCUGUCAGAUUCUGGUGAGUCUGCGAAUUCUGCUGUAUAUCUC [C29U A57G], the self-cleavage turned out to be 0.41.

AAACAGGGGGCCACAGCAGAAGCGUUCACGUCGCAGCCCCUGUCUGAUUCUGGUGAAUCUGCGAAUUCUGCUGUAUAUCUC [U1A A45U]: the self-cleavage stood at 0.41.

On to UAACAGGGGGCCACAGCAGAAGCGUCCACGUCGCAGCCCCUGUCAGAUUCUGGUGAAUCUGCUAAUUCUGCUGUAUAUCUC [U26C G63U], for which the self-cleavage was determined as 0.61.

Regarding UAUCAGGGGGCCACAGCAGAAGCGUUCACGUCGCAGCCCCUGUCAGAUUCGGGUGAAUCUGCGAAUUCUGCUGUAUAUCUC [A3U U51G], the self-cleavage came out at 1.08.

For the variant UAACAGGGGGCCACAGCAGAAGCGUUCACGUCGCAGCCCCUGUCUGAUUCAGGUGAAUCUGCGAAUUCUGCUGUAUAUCUC [A45U U51A], the self-cleavage stood at 0.33.

For the variant UAACAGGGGGCCACAGCAGAAGCGUUCACGUGGCAGCCCCUGUCAGAUUCUGGUGAAUCUGCGAAUUCUGCUGUAUACCUC [C32G U78C], the self-cleavage was 0.09.
